Measurements as given in the supplement of paper PMC5998384.

What was measured:
HeLa Kyoto [1] = assay: solubility in G1/S (NP-40 vs SDS abundance) (log2 ratio); higher = more soluble; details: cell cycle stage: G1/S
HeLa Kyoto [2] = assay: thermal stability score vs G1/S (z-score of summed log2 fold changes over temperatures); higher = more thermally stable than in G1/S
HeLa Kyoto [3] = assay: solubility change mitosis vs G1/S (difference of NP-40 vs SDS log2 ratios) (log2 ratio difference); higher = more soluble in mitosis
HeLa Kyoto [4] = assay: melting temperature (median over replicates), in situ; higher = more thermally stable
[5] = cell cycle stage: early G1 (4.5 h after nocodazole release)
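Wherever melting temperature (median over replicates), in situ is given: HeLa Kyoto cells synchronized by double thymidine or nocodazole block, proteins quantified by TMT10plex mass spectrometry, three independent biological replicates.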
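Wherever solubility change mitosis vs G1/S (difference of NP-40 vs SDS log2 ratios) is given: synchronized HeLa Kyoto cells (double thymidine block for G1/S, nocodazole release for mitosis), protein amounts in NP-40 versus SDS lysates quantified by mass spectrometry, three biological replicates.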
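Wherever solubility in G1/S (NP-40 vs SDS abundance) is given: HeLa Kyoto cells arrested at G1/S by double thymidine block, proteins quantified by TMT10plex mass spectrometry in mild NP-40 versus SDS extracts, three biological replicates.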
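Wherever thermal stability score vs G1/S (z-score of summed log2 fold changes over temperatures) is given: synchronized HeLa Kyoto cells, proteins quantified by TMT10plex mass spectrometry, three biological replicates, mitosis taken 0.5 h after nocodazole release, G1/S directly after double thymidine block.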

CIAPIN1, sequence (chain, as listed by the source): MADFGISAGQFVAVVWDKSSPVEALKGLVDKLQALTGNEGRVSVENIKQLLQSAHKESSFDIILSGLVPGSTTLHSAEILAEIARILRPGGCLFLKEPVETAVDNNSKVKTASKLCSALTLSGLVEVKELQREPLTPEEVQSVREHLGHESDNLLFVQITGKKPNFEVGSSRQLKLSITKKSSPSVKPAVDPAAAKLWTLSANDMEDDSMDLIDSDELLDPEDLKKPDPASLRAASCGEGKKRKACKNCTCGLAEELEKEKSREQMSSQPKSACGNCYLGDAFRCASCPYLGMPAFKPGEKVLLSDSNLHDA

Substance | solubility in G1/S (log2) (HeLa Kyoto [1]) | thermal stability score (HeLa Kyoto [2]; [5]) | thermal stability score (HeLa Kyoto [2]; cell cycle stage: mitosis) | solubility change mitosis (log2) (HeLa Kyoto [3]) | melting temperature (HeLa Kyoto [4]; cell cycle stage: G1/S) | melting temperature (HeLa Kyoto [4]; cell cycle stage: mitosis)
MAEPVGKRGRWSGGSGAGRGGRGGWGGRGRRPRAQRSPSRGTLDVVSVDLVTDSDEEILEVATARGAADEVEVEPPEPPGPVASRDNSNSDSEGEDRRPAGPPREPVRRRRRLVLDPGEAPLVPVYSGKVKSSLRLIPDDLSLLKLYPPGDEEEAELADSSGLYHEGSPSPGSPWKTKLRTKDKEEKKKTEFLDLDNSPLSPPSPRTKSRTHTRALKKLSEVNKRLQDLRSCLSPKPPQGQEQQGQEDEVVLVEGPTLPETPRLFPLKIRCRADLVRLPLRMSEPLQSVVDHMATHLGVSPSRILLLFGETELSPTATPRTLKLGVADIIDCVVLTSSPEATETSQQLQLRVQGKEKHQTLEVSLSRDSPLKTLMSHYEEAMGLSGRKLSFFFDGTKLSGRELPADLGMESGDLIEVWG [NFATC2IP] | 0.318 | 2.45 | 4.3 | -0.0384 | 48.7 °C | 51.5 °C
MRLPRRAALGLLPLLLLLPPAPEAAKKPTPCHRCRGLVDKFNQGMVDTAKKNFGGGNTAWEEKTLSKYESSEIRLLEILEGLCESSDFECNQMLEAQEEHLEAWWLQLKSEYPDLFEWFCVKTLKVCCSPGTYGPDCLACQGGSQRPCSGNGHCSGDGSRQGDGSCRCHMGYQGPLCTDCMDGYFSSLRNETHSICTACDESCKTCSGLTNRDCGECEVGWVLDEGACVDVDECAAEPPPCSAAQFCKNANGSYTCEECDSSCVGCTGEGPGNCKECISGYAREHGQCADVDECSLAEKTCVRKNENCYNTPGSYVCVCPDGFEETEDACVPPAEAEATEGESPTQLPSREDL [CRELD2] | 0.092 | -5.44 | -1.73 | -0.0918 | 57.2 °C | 59.6 °C
CIAPIN1 | 0.471 | 0.785 | 3.13 | -0.0971 | 50.7 °C | 51.7 °C
MAAVATCGSVAASTGSAVATASKSNVTSFQRRGPRASVTNDSGPRLVSIAGTRPSVRNGQLLVSTGLPALDQLLGGGLAVGTVLLIEEDKYNIYSPLLFKYFLAEGIVNGHTLLVASAKEDPANILQELPAPLLDDKCKKEFDEDVYNHKTPESNIKMKIAWRYQLLPKMEIGPVSSSRFGHYYDASKRMPQELIEASNWHGFFLPEKISSTLKVEPCSLTPGYTKLLQFIQNIIYEEGFDGSNPQKKQRNILRIGIQNLGSPLWGDDICCAENGGNSHSLTKFLYVLRGLLRTSLSACIITMPTHLIQNKAIIARVTTLSDVVVGLESFIGSERETNPLYKDYHGLIHIRQIPRLNNLICDESDVKDLAFKLKRKLFTIERLHLPPDLSDTVSRSSKMDLAESAKRLGPGCGMMAGGKKHLDF [ELP4] | 0.226 | 0.169 | -0.665 | -0.017 | 53.8 °C | 55.4 °C
MIPVTELRYFADTQPAYRILKPWWDVFTDYISIVMLMIAVFGGTLQVTQDKMICLPCKWVTKDSCNDSFRGWAAPGPEPTYPNSTILPTPDTGPTGIKYDLDRHQYNYVDAVCYENRLHWFAKYFPYLVLLHTLIFLACSNFWFKFPRTSSKLEHFVSILLKCFDSPWTTRALSETVVEESDPKPAFSKMNGSMDKKSSTVSEDVEATVPMLQRTKSRIEQGIVDRSETGVLDKKEGEQAKALFEKVKKFRTHVEEGDIVYRLYMRQTIIKVIKFILIICYTVYYVHNIKFDVDCTVDIESLTGYRTYRCAHPLATLFKILASFYISLVIFYGLICMYTLWWMLRRSLKKYSFESIREESSYSDIPDVKNDFAFMLHLIDQYDPLYSKRFAVFLSEVSENKLRQLNLNNEWTLDKLRQRLTKNAQDKLELHLFMLSGIPDTVFDLVELEVLKLELIPDVTIPPSIAQLTGLKELWLYHTAAKIEAPALAFLRENLRALHIKFTDIKEIPLWIYSLKTLEELHLTGNLSAENNRYIVIDGLRELKRLKVLRLKSNLSKLPQVVTDVGVHLQKLSINNEGTKLIVLNSLKKMANLTELELIRCDLERIPHSIFSLHNLQEIDLKDNNLKTIEEIISFQHLHRLTCLKLWYNHIAYIPIQIGNLTNLERLYLNRNKIEKIPTQLFYCRKLRYLDLSHNNLTFLPADIGLLQNLQNLAITANRIETLPPELFQCRKLRALHLGNNVLQSLPSRVGELTNLTQIELRGNRLECLPVELGECPLLKRSGLVVEEDLFNTLPPEVKERLWRADKEQA [LRRC8A] | -0.294 | -0.642 | -0.308 | 0.00706 | 54 °C | 52.9 °C
MPKCPKCNKEVYFAERVTSLGKDWHRPCLKCEKCGKTLTSGGHAEHEGKPYCNHPCYAAMFGPKGFGRGGAESHTFK [CRIP1] | -0.362 | -4.54 | -5.63 | 0.414 | 57.6 °C | 53.5 °C
MAVRALKLLTTLLAVVAAASQAEVESEAGWGMVTPDLLFAEGTAAYARGDWPGVVLSMERALRSRAALRALRLRCRTQCAADFPWELDPDWSPSPAQASGAAALRDLSFFGGLLRRAACLRRCLGPPAAHSLSEEMELEFRKRSPYNYLQVAYFKINKLEKAVAAAHTFFVGNPEHMEMQQNLDYYQTMSGVKEADFKDLETQPHMQEFRLGVRLYSEEQPQEAVPHLEAALQEYFVAYEECRALCEGPYDYDGYNYLEYNADLFQAITDHYIQVLNCKQNCVTELASHPSREKPFEDFLPSHYNYLQFAYYNIGNYTQAVECAKTYLLFFPNDEVMNQNLAYYAAMLGEEHTRSIGPRESAKEYRQRSLLEKELLFFAYDVFGIPFVDPDSWTPEEVIPKRLQEKQKSERETAVRISQEIGNLMKEIETLVEEKTKESLDVSRLTREGGPLLYEGISLTMNSKLLNGSQRVVMDGVISDHECQELQRLTNVAATSGDGYRGQTSPHTPNEKFYGVTVFKALKLGQEGKVPLQSAHLYYNVTEKVRRIMESYFRLDTPLYFSYSHLVCRTAIEEVQAERKDDSHPVHVDNCILNAETLVCVKEPPAYTFRDYSAILYLNGDFDGGNFYFTELDAKTVTAEVQPQCGRAVGFSSGTENPHGVKAVTRGQRCAIALWFTLDPRHSERDRVQADDLVKMLFSPEEMDLSQEQPLDAQQGPPEPAQESLSGSESKPKDEL [P3H1] | -0.0649 | 1.77 | 3.07 | -0.0228 | 53.2 °C | 54.3 °C
